T1: biotinylated human DLL3 protein expressed as a human IgG1 fusion protein (human, UniProt Q9NYJ7 27-492, limits assumed, biotinylated)
T1 sequence: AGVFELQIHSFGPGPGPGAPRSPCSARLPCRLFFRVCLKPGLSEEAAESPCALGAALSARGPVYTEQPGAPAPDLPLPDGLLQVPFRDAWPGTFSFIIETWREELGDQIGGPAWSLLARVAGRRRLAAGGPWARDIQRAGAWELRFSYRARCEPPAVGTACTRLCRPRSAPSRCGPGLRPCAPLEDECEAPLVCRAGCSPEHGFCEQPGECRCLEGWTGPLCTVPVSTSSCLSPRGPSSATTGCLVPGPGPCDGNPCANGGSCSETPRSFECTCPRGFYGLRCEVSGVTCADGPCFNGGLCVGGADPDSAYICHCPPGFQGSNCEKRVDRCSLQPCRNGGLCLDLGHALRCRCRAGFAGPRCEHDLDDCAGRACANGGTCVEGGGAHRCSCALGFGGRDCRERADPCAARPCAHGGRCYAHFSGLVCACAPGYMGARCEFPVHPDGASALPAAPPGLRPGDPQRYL


Target: T1, biotinylated human DLL3 protein …
Assay: Octet BLI, single 50 nM
In short: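 Read-out is binding affinity to human DLL3. Conditioned medium containing a known amount of each trispecific protein was run against the immobilised biotinylated DLL3 fusion.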

Row | Binder | Kd
1 | 3D05 anti-DLL3 trispecific protein (other, not shown: linker 1808, anti-albumin sdAb, linker 1808, anti-CD3 fragment, His6 1819) EVQLVESGGGLVQPGGSLTLSCAASGSSVRFLSMAWYRQAPGKKRELVAGISADGSTDYIDSVKGRFTISRDNAKNSVYLQMNSLRAEDTAVYYCYAYRWTRRYTYWGQGTLVTVSS | 16 nM
2 | 3D08 anti-DLL3 trispecific protein (other, not shown: linker 1808, anti-albumin sdAb, linker 1808, anti-CD3 fragment, His6 1819) EVQLVESGGGLVQPGGSLTLSCAASGSSVRFLSMAWYRQAPGKKRELVAGISANGSTDYIDSVKGRFTISRDNAKNSVYLQMNSLRAEDTAVYYCYAYRWTNRYTYWGQGTLVTVSS | 17 nM
3 | 3D09 anti-DLL3 trispecific protein (other, not shown: linker 1808, anti-albumin sdAb, linker 1808, anti-CD3 fragment, His6 1819) EVQLVESGGGLVQPGGSLTLSCAASGSSVSRLSMAWYRQAPGKKRELVAGISANGSTTYIDSVKGRFTISRDNAKNSVYLQMNSLRAEDTAVYYCYAYRWTTRYRYWGQGTLVTVSS | 32 nM
4 | 3D010 anti-DLL3 trispecific protein (other, not shown: linker 1808, anti-albumin sdAb, linker 1808, anti-CD3 fragment, His6 1819) EVQLVESGGGLVQPGGSLTLSCAASGSSKSFLSMAWYRQAPGKKRELVAGISADGSTSYIDSVKGRFTISRDNAKNSVYLQMNSLRAEDTAVYYCYAYRWTTRYTYWGQGTLVTVSS | 14 nM
5 | 3D011 anti-DLL3 trispecific protein (other, not shown: linker 1808, anti-albumin sdAb, linker 1808, anti-CD3 fragment, His6 1819) EVQLVESGGGLVQPGGSLTLSCAASGSSVSRLSMAWYRQAPGKKRELVAGISADGSRDYIDSVKGRFTISRDNAKNSVYLQMNSLRAEDTAVYYCYAYRWTTRYKYWGQGTLVTVSS | 5.3 nM
6 | 3E01 anti-DLL3 trispecific protein (other, not shown: linker 1808, anti-albumin sdAb, linker 1808, anti-CD3 fragment, His6 1819) EVQLVESGGGLVQPGGSLTLSCAASGSSVKFLSMAWYRQAPGKKRELVAGISADGSTMYIDSVKGRFTISRDNAKNSVYLQMNSLRAEDTAVYYCYAYRWHTRYTYWGQGTLVTVSS | 16 nM
7 | 3E02 anti-DLL3 trispecific protein (other, not shown: linker 1808, anti-albumin sdAb, linker 1808, anti-CD3 fragment, His6 1819) EVQLVESGGGLVQPGGSLTLSCAASGSGVRFLSMAWYRQAPGKKRELVAGISPDGSTDYIDSVKGRFTISRDNAKNSVYLQMNSLRAEDTAVYYCYAYRWTRRYTYWGQGTLVTVSS | 12 nM
8 | 3E03 anti-DLL3 trispecific protein (other, not shown: linker 1808, anti-albumin sdAb, linker 1808, anti-CD3 fragment, His6 1819) EVQLVESGGGLVQPGGSLTLSCAASGSSVRFLSMAWYRQAPGKKRELVAGISGDGSTDYIDSVKGRFTISRDNAKNSVYLQMNSLRAEDTAVYYCYAYRWMTRYTYWGQGTLVTVSS | 20 nM
9 | 3E04 anti-DLL3 trispecific protein (other, not shown: linker 1808, anti-albumin sdAb, linker 1808, anti-CD3 fragment, His6 1819) EVQLVESGGGLVQPGGSLTLSCAASGSSVHFLSMAWYRQAPGKKRELVAGISRDGSTDYIDSVKGRFTISRDNAKNSVYLQMNSLRAEDTAVYYCYAYRWTTRYRYWGQGTLVTVSS | 11 nM
10 | 3E09 anti-DLL3 trispecific protein (other, not shown: linker 1808, anti-albumin sdAb, linker 1808, anti-CD3 fragment, His6 1819) EVQLVESGGGLVQPGGSLTLSCAASGSSVRFLSMAWYRQAPGKKRELVAGISRDGSTDYIDSVKGRFTISRDNAKNSVYLQMNSLRAEDTAVYYCYAYRWSTRYTYWGQGTLVTVSS | 10 nM
11 | 3E011 anti-DLL3 trispecific protein (other, not shown: linker 1808, anti-albumin sdAb, linker 1808, anti-CD3 fragment, His6 1819) EVQLVESGGGLVQPGGSLTLSCAASGSKVSFLSMAWYRQAPGKKRELVAGISRDGSTDYIDSVKGRFTISRDNAKNSVYLQMNSLRAEDTAVYYCYAYRWTTRYTFWGQGTLVTVSS | 11 nM
12 | 3F05 anti-DLL3 trispecific protein (other, not shown: linker 1808, anti-albumin sdAb, linker 1808, anti-CD3 fragment, His6 1819) EVQLVESGGGLVQPGGSLTLSCAASGSKVSFLSMAWYRQAPGKKRELVAGISTDGSTDYIDSVKGRFTISRDNAKNSVYLQMNSLRAEDTAVYYCYAYRWTTRRTYWGQGTLVTVSS | 7.5 nM
13 | 3F06 anti-DLL3 trispecific protein (other, not shown: linker 1808, anti-albumin sdAb, linker 1808, anti-CD3 fragment, His6 1819) EVQLVESGGGLVQPGGSLTLSCAASGSRVSFLSMAWYRQAPGKKRELVAGISADGSTSYIDSVKGRFTISRDNAKNSVYLQMNSLRAEDTAVYYCYAYRWATRYTYWGQGTLVTVSS | 9.9 nM
14 | 3F08 anti-DLL3 trispecific protein (other, not shown: linker 1808, anti-albumin sdAb, linker 1808, anti-CD3 fragment, His6 1819) EVQLVESGGGLVQPGGSLTLSCAASGSRVSFLSMAWYRQAPGKKRELVAGISADGSTLYIDSVKGRFTISRDNAKNSVYLQMNSLRAEDTAVYYCYAYRWHTRYTYWGQGTLVTVSS | 14 nM
15 | 3F09 anti-DLL3 trispecific protein (other, not shown: linker 1808, anti-albumin sdAb, linker 1808, anti-CD3 fragment, His6 1819) EVQLVESGGGLVQPGGSLTLSCAASGSSVRFLSMAWYRQAPGKKRELVAGISRDGSTDYIDSVKGRFTISRDNAKNSVYLQMNSLRAEDTAVYYCYAYRWGTRYTYWGQGTLVTVSS | 12 nM
16 | 3F010 anti-DLL3 trispecific protein (other, not shown: linker 1808, anti-albumin sdAb, linker 1808, anti-CD3 fragment, His6 1819) EVQLVESGGGLVQPGGSLTLSCAASYSSVSRLSMAWYRQAPGKKRELVAGISADGSTVYIDSVKGRFTISRDNAKNSVYLQMNSLRAEDTAVYYCYAYRWTTRNTYWGQGTLVTVSS | 4.4 nM
17 | 3F011 anti-DLL3 trispecific protein (other, not shown: linker 1808, anti-albumin sdAb, linker 1808, anti-CD3 fragment, His6 1819) EVQLVESGGGLVQPGGSLTLSCAASGSSVSFLSMAWYRQAPGKKRELVAGISTDGSTDYIDSVKGRFTISRDNAKNSVYLQMNSLRAEDTAVYYCYAYRWRTRYTYWGQGTLVTVSS | 7.1 nM
18 | 3G01 anti-DLL3 trispecific protein (other, not shown: linker 1808, anti-albumin sdAb, linker 1808, anti-CD3 fragment, His6 1819) EVQLVESGGGLVQPGGSLTLSCAASGSSVSFLSMAWYRQAPGKKRELVAGISADGSTLYIDSVKGRFTISRDNAKNSVYLQMNSLRAEDTAVYYCYAYRWTTRYAYWGQGTLVTVSS | 8.2 nM
19 | 3G02 anti-DLL3 trispecific protein (other, not shown: linker 1808, anti-albumin sdAb, linker 1808, anti-CD3 fragment, His6 1819) EVQLVESGGGLVQPGGSLTLSCAASGSSVSFLSMAWYRQAPGKKRELVAGISADGRTDYIDSVKGRFTISRDNAKNSVYLQMNSLRAEDTAVYYCYAYRWRTRYTYWGQGTLVTVSS | 20 nM
20 | 3G04 anti-DLL3 trispecific protein (other, not shown: linker 1808, anti-albumin sdAb, linker 1808, anti-CD3 fragment, His6 1819) EVQLVESGGGLVQPGGSLTLSCVASGTSVSFLSMAWYRQAPGKKRELVAGISADGSTIYIDSVKGRFTISRDNAKNSVYLQMNSLRAEDTAVYYCYAYRWTTRRTYWGQGTLVTVSS | 8.8 nM
21 | 3G06 anti-DLL3 trispecific protein (other, not shown: linker 1808, anti-albumin sdAb, linker 1808, anti-CD3 fragment, His6 1819) EVQLVESGGGLVQPGGSLTLSCAASGSSVKFLSMAWYRQAPGKKRELVAGISADGSTLYIDSVKGRFTISRDNAKNSVYLQMNSLRAEDTAVYYCYAYRWTTRRTYWGQGTLVTVSS | 12 nM

Next, values leading:

Row | Kd | Binder
22 | 13 nM | 3G07 anti-DLL3 trispecific protein (other, not shown: linker 1808, anti-albumin sdAb, linker 1808, anti-CD3 fragment, His6 1819) EVQLVESGGGLVQPGGSLTLSCAASGSSVSFLSMAWYRQAPGKKRELVAGISRDGSTDYIDSVKGRFTISRDNAKNSVYLQMNSLRAEDTAVYYCYAYRWTSRYTYWGQGTLVTVSS
23 | 12 nM | 3G08 anti-DLL3 trispecific protein (other, not shown: linker 1808, anti-albumin sdAb, linker 1808, anti-CD3 fragment, His6 1819) EVQLVESGGGLVQPGGSLTLSCAASGSRVSFLSMAWYRQAPGKKRELVAGISKDGSTDYIDSVKGRFTISRDNAKNSVYLQMNSLRAEDTAVYYCYAYRWTTRVTYWGQGTLVTVSS
24 | 7.3 nM | 3G09 anti-DLL3 trispecific protein (other, not shown: linker 1808, anti-albumin sdAb, linker 1808, anti-CD3 fragment, His6 1819) EVQLVESGGGLVQPGGSLTLSCAASGSSVSVLSMAWYRQAPGKKRELVAGISADGSTDYIGSVKGRFTISRDNAKNSVYLQMNSLRAEDTAVYYCYAYRWTTRTTYWGQGTLVTVSS
25 | 6.9 nM | 3G010 anti-DLL3 trispecific protein (other, not shown: linker 1808, anti-albumin sdAb, linker 1808, anti-CD3 fragment, His6 1819) EVQLVESGGGLVQPGGSLTLSCAASGSSVSFLSMAWYRQAPGKKRELVAGISVDGSTDYIDSVKGRFTISRDNAKNSVYLQMNSLRAEDTAVYYCYAYRWRTRYTYWGQGTLVTVSS
26 | 17 nM | 3G011 anti-DLL3 trispecific protein (other, not shown: linker 1808, anti-albumin sdAb, linker 1808, anti-CD3 fragment, His6 1819) EVQLVESGGGLVQPGGSLTLSCAASGSRVSFLSMAWYRQAPGKKRELVAGISADGSTGYIDSVKGRFTISRDNAKNSVYLQMNSLRAEDTAVYYCYAYRWATRYTYWGQGTLVTVSS
27 | 9 nM | 3H01 anti-DLL3 trispecific protein (other, not shown: linker 1808, anti-albumin sdAb, linker 1808, anti-CD3 fragment, His6 1819) EVQLVESGGGLVQPGGSLTLSCVASGSSVKFLSMAWYRQAPGKKRELVAGISGDGSTTYIDSVKGRFTISRDNAKNSVYLQMNSLRAEDTAVYYCYAYRWTTRRTYWGQGTLVTVSS
28 | 9.9 nM | 3H03 anti-DLL3 trispecific protein (other, not shown: linker 1808, anti-albumin sdAb, linker 1808, anti-CD3 fragment, His6 1819) EVQLVESGGGLVQPGGSLTLSCAASGSSVRFLSMAWYRQAPGKKRELVAGISTDGSTDYIDSVKGRFTISRDNAKNSVYLQMNSLRAEDTAVYYCYALRWTTRYTYWGQGTLVTVSS
29 | 13 nM | 3H07 anti-DLL3 trispecific protein (other, not shown: linker 1808, anti-albumin sdAb, linker 1808, anti-CD3 fragment, His6 1819) EVQLVESGGGLVQPGGSLTLSCAASGSRVSFLSMAWYRQAPGKKRELVAGISADGSTSYIDSVKGRFTISRDNAKNSVYLQMNSLRAEDTAVYYCYAYRWRTRYTYWGQGTLVTVSS
30 | 14 nM | 3H09 anti-DLL3 trispecific protein (other, not shown: linker 1808, anti-albumin sdAb, linker 1808, anti-CD3 fragment, His6 1819) EVQLVESGGGLVQPGGSLTLSCAASKSSVSFLSMAWYRQAPGKKRELVAGISADGSTDYIDSVKGRFTISRDNAKNSVYLQMNSLRAEDTAVYYCYAYRWTTRATYWGQGTLVTVSS
31 | 8.6 nM | 3H010 anti-DLL3 trispecific protein (other, not shown: linker 1808, anti-albumin sdAb, linker 1808, anti-CD3 fragment, His6 1819) EVQLVESGGGLVQPGGSLTLSCAASGSSVSFLSMAWYRQAPGKKRELVAGISADGSTAYIDSVKGRFTISRDNAKNSVYLQMNSLRAEDTAVYYCYAYRWTTRRTYWGQGTLVTVSS
32 | 10 nM | 4A01 anti-DLL3 trispecific protein (other, not shown: linker 1808, anti-albumin sdAb, linker 1808, anti-CD3 fragment, His6 1819) EVQLVESGGGLVQPGGSLTLSCAASGSSVRFLSMAWYRQAPGKKRELVAGISQDGSTDYIDSVKGRFTISRDNAKNSVYLQMNSLRAEDTAVYYCYAYRWRTRYTYWGQGTLVTVSS

— patent US20240141072A1 (published 2024)
